The values below are quoted from earlier work in article PMC10673186.

The target in this series is SIRPα (Homo sapiens) (UniProt P78324).
Chain of UniProt P78324 (P78324 31-373): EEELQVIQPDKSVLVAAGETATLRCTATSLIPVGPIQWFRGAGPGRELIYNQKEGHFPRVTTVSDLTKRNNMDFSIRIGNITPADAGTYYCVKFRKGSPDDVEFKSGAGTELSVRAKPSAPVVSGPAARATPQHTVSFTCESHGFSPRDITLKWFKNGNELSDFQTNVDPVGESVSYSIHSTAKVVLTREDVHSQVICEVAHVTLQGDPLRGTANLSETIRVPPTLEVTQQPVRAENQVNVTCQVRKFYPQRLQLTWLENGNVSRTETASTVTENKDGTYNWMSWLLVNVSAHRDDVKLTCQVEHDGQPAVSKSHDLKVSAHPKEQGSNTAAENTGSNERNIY

For the substance CD47 (from UniProt Q08722), the Kd – broadly, the free concentration of one partner at which half of the binding sites on the other are occupied at equilibrium, for simple one-to-one binding – was 1000 nM.
